Measurements from patent EP4763865A1.
Like-named read-outs stand apart in the source and are kept apart here.

Tests used:
[1] = target: Human c-MET, His Tag (Sino Biological, Cat. No. 10692-H08H) (human) (UniProt P08581); assay: ELISA, coated human c-MET His Tag, 4-parameter fit
[2] = target: human c-MET on Hs746T human gastric cancer cells (human) (UniProt P08581); assay: flow cytometry on Hs746T cells, 4-parameter fit
[3] = target: human c-MET on Hs746T human gastric cancer cells (human) (UniProt P08581); assay: flow cytometry on Hs746T cells, PE secondary antibody, 4-parameter fit
[4] = target: human c-MET on Hs746T human gastric cancer cells (human) (UniProt P08581); assay: cell-based or functional assay
[5] = target: human c-MET on Hs746T human gastric cancer cells (human) (UniProt P08581); assay: cell-based or functional assay; remark: listed apart in the source
[6] = target: human c-MET antigen (human) (UniProt P08581); assay: ELISA, E. coli lysate supernatant of clone on human c-MET antigen
[7] = target: human c-MET antigen (human) (UniProt P08581); assay: ELISA OD450 of clone supernatant divided by PBS blank

Bottom [1] [OD450]	EC50 [1] [µg/mL]	Top [1] [OD450]	Bottom [2] [MFI]	EC50 [2] [µg/mL]	Top [2] [MFI]	Bottom [3] [MFI]	EC50 [3] [µg/mL]	Top [3] [MFI]	OD450 [6] [OD450]	Unique seq/PBS (fold over PBS) [7]	Molecule	Fab-ZAP endocytosis-mediated cell killing, Bottom (killing rate %) [4] [%]	Fab-ZAP endocytosis-mediated cell killing, EC50 [4] [pM]	Fab-ZAP endocytosis-mediated cell killing, Top (killing rate %) [4] [%]	Fab-ZAP endocytosis-mediated cell killing, Bottom (killing rate %) [5] [%]	Fab-ZAP endocytosis-mediated cell killing, EC50 [5] [pM]	Fab-ZAP endocytosis-mediated cell killing, Top (killing rate %) [5] [%]
0.0582	4.09	0.0795	-124	9.74	722						Isotype (antibody)						
0.0407	0.00925	2.02	610	0.788	8340	18000	0.31	647000			MHB07-PC (Telisotuzumab) (antibody)	15.4	12.8	98.3	49.7	19.9	83.2
									3.26	42.3	MH172-HGF R-7-2-92 (VHH) VHH: QLQLVESGGGLVQAGGSLRLSCAASGRITNTYVMGWFRQAPGKERELQAAITWTVGSTYYVDSVKGRFTISRDNAKNTLYLQMNSLKPEDTAVYYCAASRFSAWPPRGTLGEWNSWGQGTQVTVSS						
